{"source": "patent US20260008856A1", "about": "(BLUEFIN BIOMEDICINE, published 2026)", "binders": {"B1": {"name": "32C12_21A4 (antibody, V domains shown)", "VH": "QVQLVESGGGVVQPGRSLRLSCAASGFTFRNYGIHWVRQAPGKGLEWVAVIWYDGSNKFYADSVKGRFTISRDNSKNTLYLQMNSLRVEDTAVYYCAREEGIAVAPFDYWGQGTLVTVSS", "VL": "DIQMTQSPSSLSASVGDRVAITCRANQSIASYLNWYQQKPGKAPKLLIYGASSLQNGVPSRFSGSGSRTDFTLTISSLQPEDFATYYCQQSYSTEITFGQGTRLEIK"}}, "key": {"[1]": {"biological_target": "T1, huIL1RAP ECD recombinant protein (human, UniProt Q9NPH3 21-367)", "T1 construct": "also called recombinant human IL1RAP-ECD; recombinant human IL1RAP; not shown: C-terminal histidine tag for purification", "assay": "Octet BLI, antibody on Protein A biosensor, recombinant huIL1RAP ECD", "procedure": "Affinity: The affinity of antibodies to various recombinant IL1RAP protein was determined on an Octet Red™ instrument. After loading reagents into a 96-well plate, the Octet Red™ with Protein A-conjugated biosensors was programmed as follows: 30 seconds for baseline #1; 120 seconds to immobilize the antibody; 30 seconds for baseline #2; 300 seconds for association of antibody to recombinant IL1RAP; and 300-600 seconds for dissociation of recombinant IL1RAP from the antibody."}, "[2]": {"biological_target": "T1, huIL1RAP ECD recombinant protein", "assay": "affinity for human IL1RAP (Octet); Table 7 prints 1.4 nM for the same antibody"}, "[3]": {"biological_target": "T2, rat IL1RAP (Met1-Val570 plus Myc-DDK) on transfected 293 cells (Rattus norvegicus, UniProt Q63621 21-570)", "T2 construct": "whole, on cells; also called RR213032", "T2 sequence (Q63621 21-570)": "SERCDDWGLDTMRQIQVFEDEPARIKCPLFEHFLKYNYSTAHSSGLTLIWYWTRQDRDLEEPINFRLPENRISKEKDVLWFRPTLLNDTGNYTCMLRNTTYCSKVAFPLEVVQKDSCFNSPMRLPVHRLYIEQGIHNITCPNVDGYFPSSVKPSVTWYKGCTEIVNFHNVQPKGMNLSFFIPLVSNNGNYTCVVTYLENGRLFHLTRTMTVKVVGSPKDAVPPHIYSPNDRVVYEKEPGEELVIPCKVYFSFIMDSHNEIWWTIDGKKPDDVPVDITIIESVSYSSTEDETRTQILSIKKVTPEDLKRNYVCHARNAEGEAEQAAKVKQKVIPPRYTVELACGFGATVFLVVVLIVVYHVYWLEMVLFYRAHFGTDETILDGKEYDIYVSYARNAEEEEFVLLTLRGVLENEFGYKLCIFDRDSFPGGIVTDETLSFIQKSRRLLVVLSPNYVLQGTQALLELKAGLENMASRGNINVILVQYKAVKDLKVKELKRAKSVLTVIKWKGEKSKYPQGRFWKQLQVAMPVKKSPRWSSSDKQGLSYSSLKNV", "assay": "flow cytometry on 293 cells expressing rat IL1RAP (293-puro-ratIL1RAP) vs 293T-puro [cont.]", "procedure": "(§1) Staining for flow cytometry was performed in 1× cold PBS with 0.5% BSA. Primary antibodies (1 ug/ml) were incubated with live cells on ice for 30 minutes, after a brief wash, cells were incubated with Alexa Fluro® 488-conjugated anti-human IgG secondary antibody @1:1000 (709-546-149, Jackson ImmunoResearch). Acquisition of the data was performed on a MACSQuant® Flow Cytometers (Miltenyi Biotec) and analyzed with FlowJo software."}, "[4]": {"biological_target": "T3, mouse IL1RAP (Met1-Val570 plus Myc-DDK) on transfected 293 cells (Mus musculus, UniProt Q61730 21-570)", "T3 construct": "whole, on cells; also called MR223729", "T3 sequence (Q61730 21-570)": "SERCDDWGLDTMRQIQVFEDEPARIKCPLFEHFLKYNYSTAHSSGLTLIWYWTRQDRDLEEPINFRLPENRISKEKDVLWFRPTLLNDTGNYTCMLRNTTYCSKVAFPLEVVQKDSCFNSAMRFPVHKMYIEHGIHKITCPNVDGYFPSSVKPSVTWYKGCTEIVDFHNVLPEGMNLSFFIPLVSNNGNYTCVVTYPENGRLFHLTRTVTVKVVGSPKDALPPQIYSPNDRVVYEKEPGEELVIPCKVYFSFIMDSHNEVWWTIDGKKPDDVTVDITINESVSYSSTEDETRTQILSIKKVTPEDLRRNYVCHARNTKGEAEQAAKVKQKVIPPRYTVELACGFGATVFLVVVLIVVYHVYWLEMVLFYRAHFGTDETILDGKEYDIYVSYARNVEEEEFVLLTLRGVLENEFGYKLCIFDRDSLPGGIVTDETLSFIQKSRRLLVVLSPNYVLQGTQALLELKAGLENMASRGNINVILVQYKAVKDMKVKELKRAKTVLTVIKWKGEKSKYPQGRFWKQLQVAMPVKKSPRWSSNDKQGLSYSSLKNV", "assay": "flow cytometry on 293 cells expressing mouse IL1RAP (293-puro-mouseIL1RAP) vs 293T-puro [cont.]", "procedure": "as §1"}}}
{"binder": "B1", "values": [{"measurement": "Kd", "setting": "[1]", "value": 1.4, "unit": "nM"}, {"measurement": "Kd", "setting": "[2]", "value": 1, "unit": "nM"}, {"measurement": "binding result", "setting": "[3]", "value": "no binding (tested: 1 ug/ml)"}, {"measurement": "binding result", "setting": "[4]", "value": "no binding (tested: 1 ug/ml)"}]}
